Here are results for 27 molecules from paper PMC13167773, “Chiral inversion mutagenesis identifies geometrically constrained residues within self-associating low-complexity domains” (Proceedings of the National Academy of Sciences of the …, 2026).

The labels stand for the following.
T1: wild-type glutathione S-transferase (GST)-EMD LCD fusion protein
T1 sequence (P50402 whole entry, species assumed, looked up): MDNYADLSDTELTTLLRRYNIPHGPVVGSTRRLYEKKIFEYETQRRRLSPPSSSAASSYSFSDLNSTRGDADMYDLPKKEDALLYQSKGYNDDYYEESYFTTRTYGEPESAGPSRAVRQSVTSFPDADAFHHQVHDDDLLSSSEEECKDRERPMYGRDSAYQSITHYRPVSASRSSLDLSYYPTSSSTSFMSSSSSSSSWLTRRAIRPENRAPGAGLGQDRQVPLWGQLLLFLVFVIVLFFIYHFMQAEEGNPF

B1: semisynthetic EMD LCD with a central 1×D inversion within the 3×D_(191-195) variant (protein)
chain: RRLSPPSSSAASSYSFSDLNSTRGDADMYDLPKKEDALLYQSKGYNDDYYEESYFTTRTYGEPESAGPSRAVRQSVTSFPDADAFHHQVHDDDLLSSSEEECKDRERPMYGRDSAYQSITHYRPVSASRSSLDLSYYPTSSSTCFMSSSSSSSSWLTRRAIRPENRAPGAGLGQER
B2: untagged semisynthetic EMD LCD 3×D_(195-199) (protein)
chain: RRLSPPSSSAASSYSFSDLNSTRGDADMYDLPKKEDALLYQSKGYNDDYYEESYFTTRTYGEPESAGPSRAVRQSVTSFPDADAFHHQVHDDDLLSSSEEECKDRERPMYGRDSAYQSITHYRPVSASRSSLDLSYYPTSSSTCFMSSSSSSSSWLTRRAIRPENRAPGAGLGQER
B3: untagged semisynthetic EMD LCD 3×D_(199-203) (protein)
chain: RRLSPPSSSAASSYSFSDLNSTRGDADMYDLPKKEDALLYQSKGYNDDYYEESYFTTRTYGEPESAGPSRAVRQSVTSFPDADAFHHQVHDDDLLSSSEEECKDRERPMYGRDSAYQSITHYRPVSASRSSLDLSYYPTSSSTCFMSSSSSSSSWLTRRAIRPENRAPGAGLGQER
B4: untagged semisynthetic EMD LCD 3×D_(203-207) (protein)
chain: RRLSPPSSSAASSYSFSDLNSTRGDADMYDLPKKEDALLYQSKGYNDDYYEESYFTTRTYGEPESAGPSRAVRQSVTSFPDADAFHHQVHDDDLLSSSEEECKDRERPMYGRDSAYQSITHYRPVSASRSSLDLSYYPTSSSTCFMSSSSSSSSWLTRRAIRPENRAPGAGLGQER
B5: untagged semisynthetic EMD LCD 3×D_(191-195) (protein)
chain: RRLSPPSSSAASSYSFSDLNSTRGDADMYDLPKKEDALLYQSKGYNDDYYEESYFTTRTYGEPESAGPSRAVRQSVTSFPDADAFHHQVHDDDLLSSSEEECKDRERPMYGRDSAYQSITHYRPVSASRSSLDLSYYPTSSSTCFMSSSSSSSSWLTRRAIRPENRAPGAGLGQER
B6: HA-tagged semisynthetic EMD LCD 3×D_(191-195) (domain or fragment)
chain: RRLSPPSSSAASSYSFSDLNSTRGDADMYDLPKKEDALLYQSKGYNDDYYEESYFTTRTYGEPESAGPSRAVRQSVTSFPDADAFHHQVHDDDLLSSSEEECKDRERPMYGRDSAYQSITHYRPVSASRSSLDLSYYPTSSSTCFMSSSSSSSSWLTRRAIRPENRAPGAGLGQER
modifications: three D-amino acids at alternating positions, 3×D_(191-195)
B7: HA-tagged semisynthetic EMD LCD 3×D_(211-215) (domain or fragment)
chain: RRLSPPSSSAASSYSFSDLNSTRGDADMYDLPKKEDALLYQSKGYNDDYYEESYFTTRTYGEPESAGPSRAVRQSVTSFPDADAFHHQVHDDDLLSSSEEECKDRERPMYGRDSAYQSITHYRPVSASRSSLDLSYYPTSSSTCFMSSSSSSSSWLTRRAIRPENRAPGAGLGQER
modifications: three D-amino acids at alternating positions, 3×D_(211-215)
B8: HA-tagged semisynthetic EMD LCD 3×D_(207-211) (domain or fragment)
chain: RRLSPPSSSAASSYSFSDLNSTRGDADMYDLPKKEDALLYQSKGYNDDYYEESYFTTRTYGEPESAGPSRAVRQSVTSFPDADAFHHQVHDDDLLSSSEEECKDRERPMYGRDSAYQSITHYRPVSASRSSLDLSYYPTSSSTCFMSSSSSSSSWLTRRAIRPENRAPGAGLGQER
modifications: three D-amino acids at alternating positions, 3×D_(207-211)
B9: HA-tagged semisynthetic EMD LCD 3×D_(199-203) (domain or fragment)
chain: RRLSPPSSSAASSYSFSDLNSTRGDADMYDLPKKEDALLYQSKGYNDDYYEESYFTTRTYGEPESAGPSRAVRQSVTSFPDADAFHHQVHDDDLLSSSEEECKDRERPMYGRDSAYQSITHYRPVSASRSSLDLSYYPTSSSTCFMSSSSSSSSWLTRRAIRPENRAPGAGLGQER
modifications: three D-amino acids at alternating positions, 3×D_(199-203)
B10: HA-tagged semisynthetic EMD LCD 3×D_(195-199) (domain or fragment)
chain: RRLSPPSSSAASSYSFSDLNSTRGDADMYDLPKKEDALLYQSKGYNDDYYEESYFTTRTYGEPESAGPSRAVRQSVTSFPDADAFHHQVHDDDLLSSSEEECKDRERPMYGRDSAYQSITHYRPVSASRSSLDLSYYPTSSSTCFMSSSSSSSSWLTRRAIRPENRAPGAGLGQER
modifications: three D-amino acids at alternating positions, 3×D_(195-199)
B11: HA-tagged semisynthetic EMD LCD 3×D_(203-207) (domain or fragment)
chain: RRLSPPSSSAASSYSFSDLNSTRGDADMYDLPKKEDALLYQSKGYNDDYYEESYFTTRTYGEPESAGPSRAVRQSVTSFPDADAFHHQVHDDDLLSSSEEECKDRERPMYGRDSAYQSITHYRPVSASRSSLDLSYYPTSSSTCFMSSSSSSSSWLTRRAIRPENRAPGAGLGQER
modifications: three D-amino acids at alternating positions, 3×D_(203-207)
B12: untagged semisynthetic EMD LCD (residues 46 to 221), all-L-WT (domain or fragment, UniProt P50402 46-221, looked up)
chain: RRLSPPSSSAASSYSFSDLNSTRGDADMYDLPKKEDALLYQSKGYNDDYYEESYFTTRTYGEPESAGPSRAVRQSVTSFPDADAFHHQVHDDDLLSSSEEECKDRERPMYGRDSAYQSITHYRPVSASRSSLDLSYYPTSSSTCFMSSSSSSSSWLTRRAIRPENRAPGAGLGQER
notes: Emerin (EMD) LCD residues 46 to 221, S189C and D220E; Rink amide resin implies a C-terminal amide (surmised); also called WT variant; source: RP-HPLC purified
B13: synthetic NEFL head domain 5×D_(22-30) (protein)
chain: SSFSYEPYYSTSYKRRYVETPRVHISSVRCGYSTARSAYSSYSAPVSSSLSVRRSYSSSSGSLMPSLENLELS
B14: synthetic NEFL head domain 5×D_(63-71) (protein)
chain: SSFSYEPYYSTSYKRRYVETPRVHISSVRCGYSTARSAYSSYSAPVSSSLSVRRSYSSSSGSLMPSLENLELS
B15: synthetic NEFL head domain 5×D_(33-41) (protein)
chain: SSFSYEPYYSTSYKRRYVETPRVHISSVRCGYSTARSAYSSYSAPVSSSLSVRRSYSSSSGSLMPSLENLELS
B16: synthetic NEFL head domain 5×D_(43-51) (protein)
chain: SSFSYEPYYSTSYKRRYVETPRVHISSVRCGYSTARSAYSSYSAPVSSSLSVRRSYSSSSGSLMPSLENLELS
B17: synthetic NEFL head domain 5×D_(53-63) (protein)
chain: SSFSYEPYYSTSYKRRYVETPRVHISSVRCGYSTARSAYSSYSAPVSSSLSVRRSYSSSSGSLMPSLENLELS
B18: synthetic NEFL head domain (residues 2 to 74), WT (domain or fragment, UniProt P07196 2-74, looked up)
chain: SSFSYEPYYSTSYKRRYVETPRVHISSVRCGYSTARSAYSSYSAPVSSSLSVRRSYSSSSGSLMPSLENLELS
notes: neurofilament light chain (NEFL) head domain residues 2 to 74, ligation junction cysteine S31C and D72E; also called WT head domain; NEFL LCD; source: fully synthetic: NEFL-P1 (2 to 30, MesNa thioester) ligated to NEFL-P2 (31 to 74) by native chemical ligation; RP-HPLC purified

One series concerns the target P50402. The experiment in a line: turbidity (absorbance at 395 nm); untagged semisynthetic EMD LCD ChIM library, 50 μM LCD, rapid dilution from strong denaturant into physiological buffer, n = 3. To be noted: other: turbidity (absorbance at 395 nm).
Regarding B1, the “fold decrease in turbidity relative to WT” value is listed as “a 6.4-fold decrease in turbidity relative to WT”. Molecule B2 showed a fold decrease in turbidity of 2.8 fold. Same read-out and setting: the same measure for B3: 2.1-fold.

On to B4, for which the “fold decrease in turbidity” value is listed as “a modest 1.4-fold decrease in turbidity”. Same read-out and setting: in the case of B5 it was 13.3 fold.

The next series has as its target T1, wild-type glutathione S-transferase (GST)-EMD LCD fusion protein. The experiment in a line: pull-down; WT GST-EMD LCD immobilized on glutathione resin, incubated with HA-tagged EMD LCD prey (50 nM), washed with binding buffer, eluted with GSH; anti-HA Western blot of eluent relative to input, densitometry, n = 3.
Settings: not given
Molecule B6 returned a fold reduction of pulldown relative to WT of 8.8 fold. B7 came in with a fold difference of pulldown from WT of 1.7 fold.

Molecule B8 yielded a fold difference of pulldown from WT of 1.8 fold. In turn, B9 returned a fold reduction of pulldown relative to WT of 6.2 fold. Same read-out and setting: in the case of B10 it was 7.9 fold; in that of B11, 3.6 fold.

System in another series: not listed separately
The experiment in a line: turbidity (absorbance at 395 nm); untagged recombinant EMD LCD 3×Pro library, 60 μM LCD, transfer from denaturing to native Tris buffer, n = 3; self-association read as precipitation. To be noted: other: turbidity (absorbance at 395 nm).
For untagged EMD LCD 3×Pro_(188-191), the fold reduction of turbidity relative to WT turned out to be 108 fold.

untagged EMD LCD 3×Pro_(198-201): the fold reduction of turbidity relative to WT turned out to be 34.7 fold. The same measure, in the same setting: the same measure for untagged EMD LCD 3×Pro_(183-186): “modestly reduces turbidity by 2.8-fold relative to WT”; for untagged EMD LCD 3×Pro_(193-196): 16.6 fold; for untagged EMD LCD 3×Pro_(203-206): 14.3-fold.

In another series the target is T1, wild-type glutathione S-transferase (GST)-EMD LCD fusion protein. The series can be described thus: pull-down; WT GST-EMD LCD immobilized on glutathione resin, incubated with HA-tagged EMD LCD prey (50 nM), washed with binding buffer, eluted with GSH; anti-HA Western blot of eluent relative to input, densitometry, n = 3.
Settings: not given
The source holds these as a separate data set.
Molecule “HA-tagged EMD LCD 3×Pro_(183-186) (domain or fragment)” showed a fold reduction of pulldown relative to WT of 2.2 fold.

Turning to “HA-tagged EMD LCD 3×Pro_(188-191) (domain or fragment)”, the fold reduction of pulldown relative to WT came out at 5 fold. Same read-out and setting: in the case of “HA-tagged EMD LCD 3×Pro_(193-196) (domain or fragment)” it was 5.9 fold; in that of “HA-tagged EMD LCD 3×Pro_(198-201) (domain or fragment)”, 3.4 fold.

Another series concerns the molecule itself. The experiment in a line: turbidity (absorbance at 395 nm); untagged semisynthetic EMD LCD ChIM library, 50 μM LCD, rapid dilution from strong denaturant into physiological buffer, n = 3.
Settings: not given
Consider B12, for which the binding result is “binds”.

The target in a further series is P07196. The series can be described thus: turbidity (absorbance at 395 nm); synthetic NEFL head domain 5×D library, 100 μM LCD, A395, n = 3. Conditions: other: turbidity (absorbance at 395 nm).
With B13, the “fold decrease in turbidity relative to WT” value is on record as 9.1-fold.

As to B14, the fold decrease in turbidity relative to WT worked out at 1 fold. Same read-out and setting: the same measure for B15: 20-fold. Same read-out and setting: the same measure for B16: 2.7-fold. The same measure, in the same setting: in the case of B17 it was 1.6-fold.

Another series deals with the molecule itself. The description is as above.
Settings: not given
For the molecule B18, the binding result is given as “binds”.
